Measurements as given in patent US20230312754A1 (published 2023).
Values belong to the binder of their own block, whether it stands above or below them.

What was measured:
[1] = biological target: T1, biotinylated human CD40-mouse Fc (Ancell #504-030) (human, UniProt P25942 21-193, biotinylated); assay: Octet (BLI), bsAb in solution, captured CD40mFc-biotin, 1:1 fit
T1 construct: Bought protein; also called biotinylated hCD40-muIg; CD40mFc-biotin; not shown: mouse Fc (muIg) part
Description: Kinetic measurements were performed in the Octet RED96 platform using several different setups. […] Monomeric human CD40-His-Avi tag (Acro Biosystems #CD0-H5228), monomeric Human CEACAM5-His (R&D Systems #4128-CM-050) or monomeric Cynomolgus CEACAM5-His (Sino Biological #90891-C08H) were ½ serially diluted in 1× kinetic buffer (Sartorius) starting at 500 nM or 100 nM. Bispecific antibodies were 2 serially diluted starting at 50 nM, 25 nM or 10 nM or 1/1.5 serially diluted starting at 15 nM or 5 nM. Binding kinetics was studied in 1× kinetic buffer where association was allowed for 100 sec, 300 sec or 600 sec followed by dissociation for 100 sec, 300 sec or 3600 sec. Sensor tips were regenerated with 10 mM Glycine pH 1.7. Data generated were referenced by subtracting blank or parallel buffer blank, the baseline was aligned to the y-axis, inter-step correction by alignment against dissociation was performed and the data was smoothed by Savitzky-Golay filter in the data analysis software (v9.0.0.14). The processed data was fitted using a 1:1 Langmuir binding model with R² or X² as a measurement of fitting accuracy.
TABLE 12 Summary of kinetic profiles measured in Octet. Bispecific antibodies in solution (25-0.8 nM, 10-2 or 5-0.7 nM.) interacting with captured CD40mFc-biotin. Association was measured for 300 sec or 600 sec and dissociation was measured for 300 sec or 3600 sec

[2] = biological target: T2, human CEACAM5 (R&D Systems #4128-CM-050) (human, UniProt P06731 35-685); assay: dual target ELISA: coated hCEACAM-5, detection with biotinylated hCD40-muIg
T2 construct: Bought protein; also called hCEACAM-5; Human CEACAM5-His
T2 sequence (looked up): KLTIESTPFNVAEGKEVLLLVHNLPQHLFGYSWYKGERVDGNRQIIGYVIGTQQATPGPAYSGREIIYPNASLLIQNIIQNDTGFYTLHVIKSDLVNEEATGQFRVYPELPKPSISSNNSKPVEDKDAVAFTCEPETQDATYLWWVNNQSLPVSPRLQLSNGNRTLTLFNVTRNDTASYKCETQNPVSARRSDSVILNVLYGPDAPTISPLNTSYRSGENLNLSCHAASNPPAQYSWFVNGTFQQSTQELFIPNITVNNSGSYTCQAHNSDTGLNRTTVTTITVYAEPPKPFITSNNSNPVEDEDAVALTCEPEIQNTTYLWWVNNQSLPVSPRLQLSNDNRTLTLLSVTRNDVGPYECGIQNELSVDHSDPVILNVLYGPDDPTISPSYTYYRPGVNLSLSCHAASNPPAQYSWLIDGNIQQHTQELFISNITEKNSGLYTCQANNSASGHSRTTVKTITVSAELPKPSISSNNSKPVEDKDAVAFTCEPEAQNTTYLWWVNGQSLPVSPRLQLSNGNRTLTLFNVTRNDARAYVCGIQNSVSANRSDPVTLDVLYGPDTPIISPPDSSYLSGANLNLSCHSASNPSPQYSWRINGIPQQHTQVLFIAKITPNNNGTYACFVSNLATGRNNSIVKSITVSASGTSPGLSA
Description: 96-well plates were coated with 0.5 μg/mL antigen, hCEACAM-1 (2244-CM-050, R&D Systems), hCEACAM-5 (4128-CM-050, R&D Systems), hCEACAM-6 (3934-CM-050, R&D Systems) or CEACAM-8 (9639-CM-050, R&D Systems) in PBS over night at 4° C. After washing in PBS/0.05% Tween 20 (PBST), the plates were blocked with PBST, 2% BSA for at least 30 minutes at room temperature before a second round of washing. RUBY bsAbs, diluted in PBST, 0.5% BSA, were then added and allowed to bind for at least 1 hour at room temperature. […] Finally, a final round of washing was performed and bound complexes detected using SuperSignal Pico Luminescent as substrate and luminescence signals were measured using Fluostar Optima.

T1 sequence (P25942 21-193 limits assumed): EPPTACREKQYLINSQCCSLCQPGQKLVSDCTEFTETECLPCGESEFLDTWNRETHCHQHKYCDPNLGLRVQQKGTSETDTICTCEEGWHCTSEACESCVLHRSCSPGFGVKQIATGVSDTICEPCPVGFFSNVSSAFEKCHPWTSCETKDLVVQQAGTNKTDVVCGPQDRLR

- Kd [1]: 76 nM
- koff [1]: 0.00062 s⁻¹
- kon [1]: 8300 M⁻¹ s⁻¹
B1: AC_05293 (bispecific antibody, V domains shown)
VH 1: EVQLLESGGGLVQPGGSLRLSCAASGFTFSSYAMSWVRQAPGKGLEWVSGIGSYGGGTYYADSVKGRFTISRDNSKNTLYLQMNSLRAEDTAVYYCARYVNFGMDYWGQGTLVTVSS
VL 1: DIQMTQSPSSLSASVGDRVTITCRASQSISSYLNWYQQKPGKAPKLLIYAASSLQSGVPSRFSGSGSGTDFTLTISSLQPEDFATYYCQQYGRNPPTFGQGTKLEIK
VL 2: ELVMTQSPSSLTVTAGEKVTMSCKSSQSLLNSGNQKNYLTWYQQKPGQPPKLLIYWASTRESGVPDRFTGSGSGTDFTLTISSVQAEDLAVYYCQNDYSYPLTFGAGTKLEIK
VH 2: EVQLLEQSGAELVRPGTSVKISCKASGYAFTNYWLGWVKQRPGHGLEWIGDIFPGSGNIHYNEKFKGKATLTADKSSSTAYMQLSSLTFEDSAVYFCARLRNWDEPMDYWGQGTTVTVSS

- Kd [1]: 8.5 nM
- koff [1]: 0.0046 s⁻¹
- kon [1]: 540000 M⁻¹ s⁻¹
B2: AC_05300 (bispecific antibody, V domains shown)
VH 1: B1 VH 2
VL 1: B1 VL 2
VL 2: B1 VL 1
VH 2: B1 VH 1

- binding result [2]: binds
B3: Multi40 (bispecific antibody)
heavy 1: not shown
light: DIQMTQSPSSLSASVGDRVTITCRASQSISSYLNWYQEKPGKAPKLLIYAASSLQSGVPSRFSGSGSGTDFTLTISSLQPEDFATYYCQQSSHGPLLTFGQGTKLEIKRTVAAPSVFIFPPSDEQLKSGTASVVCYLNNFYPREAKVQWKVDNALQSGNSQESVTEQDSKDSTYSLWSTLTLSKADYEKHKVYACEVTHQGLSSPVTKSFNRGEC
heavy 2: EVQLLESGGGLVQPGGSLRLSCAASGFTFSTYGMHWVREAPGKGLEWLSYISGGSSYIFYADSVKGRFTISRDNSKNTLYLQMNSLRAEDTAVYYCARILRGGSGMDLWGQGTLVTVSSASTKGPSVFPLAPSSKSTSGGTAALGCLVKDYFPEPVTVSWNSGALTSGVHTFPAVLQSSGLYSLTSVVEVPSSSLGTQTYICNVNHKPSNTKVDKKVEPKSC
notes: CEACAM5xCD40, Optimized RUBY format; copies: 2 + 2 + 2
